Substitutions are numbered along the chain they refer to. Numbers in names are those of the source.
B1: C5a-(1-66,Cys27Ala)-A8B-Del.71-73 (ligand)
chain: TLQKKIEEIAAKYKHSVVKKCCYDGAAVNNDETCEQRAARISLGPRCIKAFTECCVVASQLRANISFKRS
notes: also called C5a-(1-66, Cys27Ala)-FKRS-70; 67-FKRS-70
B2: C5a-(1-66,Cys27Ala)-A8B-Lys69-Ala70 (ligand)
chain: TLQKKIEEIAAKYKHSVVKKCCYDGAAVNNDETCEQRAARISLGPRCIKAFTECCVVASQLRANISFKKALLR
B3: C5a-(1-66,Cys27Ala)-A8B (ligand)
chain: B2 chain with K69R, A70S
notes: Mutein of human C5a, expressed in the E. coli periplasm without a fusion partner and purified on mAb 561; also called C5aRA A8B; mutein A8B
B4: C5a-(1-66,Cys27Ala)-A8B-Leu70-Tyr73 (ligand)
chain: B2 chain with K69R, A70L, R73Y
notes: also called 67-FKRLLLY-73
B5: C5a-(1-66,Cys27Ala)-A8B-Ala69 (ligand)
chain: B2 chain with K69A, A70S
notes: also called A8B-Arg69Ala
B6: C5a-(1-66,Cys27Arg)-A8B (ligand)
chain: B2 chain with A27R, K69R, A70S
notes: also called A8B-Arg27; A8B Arg 27
B7: C5a-(1-66,Cys27Ala)-A8B-Asp69 (ligand)
chain: B2 chain with K69D, A70S
notes: also called A8B-Arg69Asp
B8: C5a-(1-66,Cys27Ala)-A8B-Cys73 (ligand)
chain: B2 chain with K69R, A70S, R73C
notes: also called Ab8-Cys73; 67-FKRSLLC-73
B9: C5a-(1-66,Cys27Ala)-A8B-Leu70 (ligand)
chain: B2 chain with K69R, A70L
notes: also called 67-FKRLLLR-73
B10: recombinant human C5a (ligand)
chain: TLQKKIEEIAAKYKHSVVKKCCYDGACVNNDETCEQRAARISLGPRCIKAFTECCVVASQLRANISHKDMQLGR
notes: 74-residue recombinant human C5a; also called rhC5a; rC5a

Tests used:
human C5a receptor [1] = molecular target: T1, human C5a receptor (human, UniProt P21730 1-350); assay: cell-based or functional assay
T1 sequence (looked up): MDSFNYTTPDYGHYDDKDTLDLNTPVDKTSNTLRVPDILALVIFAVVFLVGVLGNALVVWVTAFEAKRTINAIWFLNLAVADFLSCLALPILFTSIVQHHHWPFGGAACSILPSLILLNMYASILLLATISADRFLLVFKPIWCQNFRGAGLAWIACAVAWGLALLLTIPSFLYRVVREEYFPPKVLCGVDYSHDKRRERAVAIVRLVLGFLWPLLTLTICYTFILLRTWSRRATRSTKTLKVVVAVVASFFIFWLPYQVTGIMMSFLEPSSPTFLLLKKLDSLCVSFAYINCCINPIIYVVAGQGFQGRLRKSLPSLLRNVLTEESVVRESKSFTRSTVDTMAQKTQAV

human C5a receptor [2] = molecular target: T1, human C5a receptor; assay: competition with 125I-rhC5a tracer on RBL cells stably transfected with human C5a receptor, on ice, filtration
Method: (§1) For competitive binding studies, 40 μl of a reaction mixture containing a constant amount of ¹²⁵I-rhC5a as tracer (≈17000 cpm) and increasing concentrations of unlabeled C5a muteins were incubated in a microtiter plate on ice. […] The binding reaction was started by adding 25 μl of ice-cold RBL-C5aR cell suspension. After incubation on ice for 30 min, cell bound and free ¹²⁵I-rhC5a were separated by filtration of 60 μl through a microtitration-membrane plate (Multiscreen™-HV; 0.45 μm, MAHV N45, Millipore) using a vacuum manifold (Millipore). […] Punched out membranes were counted in a γ-counter (Packard, Canberra). The plot of cell-bound ¹²⁵I-rhC5a versus concentration of unlabeled competitor yields the half-maximal inhibitory concentrations (IC₅₀) (cf. FIG. 3, Table 1).

human C5a receptor [3] = molecular target: T1, human C5a receptor; assay: competition with 125I-rhC5a on RBL cells stably transfected with human C5a receptor; reference rhC5a
Method: The values for rhC5a (“isolated” curve closest to the y-axis) are depicted as black circles, those for the mutein A8B as rhombi, for A8BLeu70 as triangles, for A8BLeu70Tyr73 as squares, for A8BArg as hexagons, for A8Bdel71-73 as dark-gray circles and those for A8BCys73 as light-gray circles.
as §1

Binder | ED50 [nM] (N-acetyl-beta-D-glucosaminidase release from C5aR-RBL cells) (human C5a receptor [1]) | ID50 [nM] (inhibition of N-acetyl-beta-D-glucosaminidase release from C5aR-RBL cells) (human C5a receptor [1]) | IC50 (human C5a receptor [2]) | fold difference of IC50 against rhC5a (human C5a receptor [3])
B1 | > 4000 nM | 17.4 nM | 26.9 nM | 
B2 | > 4000 nM | 60.8 nM |  | 
B3 | > 4000 nM | 22.3 nM | 35.4 nM | 
B4 | > 4000 nM | 8.8 nM | 21.3 nM | 8 fold
B5 | 36.8 nM |  | 30.1 nM | 
B6 | > 4000 nM | 17.5 nM | 43.1 nM | 16 fold
B7 | 5.9 nM |  | 5.4 nM | 
B8 | > 4000 nM | 17.4 nM | 37.3 nM | 
B9 | > 4000 nM | 7.9 nM | 23.1 nM | 
B10 | 3.5 nM |  | 2.7 nM | 

Reference: patent US20060052294A1 (CINCINNATI CHILDREN S HOSPITAL MEDICAL CENTER, published 2006)
